Where two headings read alike, the source gives them in different places.
Legend:
[1] = tested on: Q-gliadin (gliadin-BHQ-1 quencher conjugate); conditions: Gli4-FAM-PEG-rGO fluorescence at 520 nm; SE 0.02
[2] = tested on: gliadin; conditions: Gli4-FAM-PEG-rGO/Q-glia fluorescence recovery at 520 nm, 100 nM aptamer; SE 0.1912; p66 gives about 0.11 ppm
[3] = tested on: lactose protein (as named; milk protein presumably); conditions: Gli4-FAM-PEG-rGO/Q-glia fluorescence at 520 nm; specificity control
[4] = tested on: gliadin; conditions: Gli4-FAM-PEG-rGO/Q-glia fluorescence at 520 nm; differs from Table 1 value

## CCAGTCTCCCGTTTACCGCGCCTACACATGTCTGAATGCC [Gli4-FAM]
[1]
  Kd: 148 ppm
[2]
  Kd: 0.76 ppm
[3]
  Kd: 13.2 ppm
[4]
  Kd: 0.11 ppm
